According to patent US20190231706A1, “SURFACTANT PEPTIDE NANOSTRUCTURES AND USES IN DRUG DELIVERY” (3-D Matrix, Ltd., priority 2017, published 2019):
Read-outs that look alike come from different tables or passages of the source. Where a SMILES comes first, the peptide text is derived from it.

Tests used:
[1] = Transmittance study of surfactant peptides and peptide/siRNA complexes in aqueous solution; assay type: physicochemical; settings: for Appearance of peptide mixed with siRNA in transmittance study: peptide 0.1% and 0.5% (w/v) with siRNA 0.01% and 0.05% (w/v), pH 7.5; for Transmittance (%) With siRNA (peptide %/siRNA %) 0.1%/0.01%: peptide 0.1%/siRNA 0.01%; for Transmittance (%) With siRNA (peptide %/siRNA %) 0.1%/0.01% / Transmittance (%) With siRNA (peptide %/siRNA %) 0.5%/0.05% / Transmittance (%) Peptide alone 0.1% (w/v) / Transmittance (%) Peptide alone 0.5% (w/v): aqueous solution pH 7.5; for Transmittance (%) With siRNA (peptide %/siRNA %) 0.1%/0.01% / Transmittance (%) With siRNA (peptide %/siRNA %) 0.5%/0.05%: * = significantly cloudy and phase-separated; for Transmittance (%) With siRNA (peptide %/siRNA %) 0.5%/0.05%: peptide 0.5%/siRNA 0.05%
[2] = AFM imaging of peptide and peptide/siRNA nanostructure; assay type: physicochemical; settings: for Nanostructure of peptide / Diameter of the nanospheres: peptide alone
Source text: Nanostructure plays an important role in formulation of agents (e.g., therapeutics, such as siRNA).

MCF-7 cell = test: Cell toxicity, luciferase emission with peptides only or peptides/negative control siRNA; assay type: cell-based
Source text: siRNA (Luciferase GL3 duplex) was complexed with Ac-A4K-NH2 (SEQ ID NO: 55), Ac-A3KA3-NH2 (SEQ ID NO:55), Ac-A6K-NH2 (SEQ ID NO: 105), and a control agent (DharmaFECT 1; commercially available lipid transfection agent). The siRNA and peptide complexes arranged into nanospherical structures. A composition comprising the nanospherical structures was provided to tumor cells (MCF-7 cell; breast cancer cell line) in vitro to preliminary transfection efficacy and cell toxicity. Two methods were utilized for the present Example. For Method 1, MCF-7 cells were cultured on a plate. The siRNA and peptide complexes were added into the culture medium over the cells. The culture dish (96 wells) containing the siRNA and peptide complexes and the cells was incubated for 48 hours. For Method 2, a concentrated suspension of MCF-7 cells (5×10^6 cells/ml) was prepared in a tube. The siRNA and peptide complexes were applied into the suspension. The cell mixture was incubated for 1 hour in the tube. The cell mixture was plated in the culture dish and incubated for 48 hours. Luciferase emission from each sample was observed. Table 4 summarizes experimental conditions e.g., concentration of siRNA and peptide surfactants, charge ratio, and types of siRNA (e.g., Luciferase GL3 duplex or negative control thereof). The buffer used in this Example was Opti-MEM1 (serum-free). As control samples, buffer only, negative control (NC) siRNA with or without the peptide surfactants, DharmaFECT 1 with or without siRNA (or NC siRNA) were tested with the cells. Cell toxicity.

mouse tumor model = test: Delivery of siRNA to tumor cells in vivo; settings: siRNA/peptide complex administered to mouse tumor model
Protocol: The present Example describes, among other things, an exemplary use of surfactant peptides for delivery of siRNA to tumor cells in vivo. siRNA is complexed with Ac-A4K-NH2 (SEQ ID NO: 55), Ac-A3KA3-NH2 (SEQ ID NO:55), Ac-A6K-NH2 (SEQ ID NO: 105), or a control peptide. The siRNA and peptide complexes arrange into nanospherical structures. A composition comprising the nanospherical structures is administered to a mouse tumor model. One or more cancer associated genes is suppressed and the size of the tumor decreases.

[3] = Zeta potential by Zetasizer Nano ZS; assay type: physicochemical; settings: 0.5 w/v % in an aqueous solution; in mV (unit assumed)
Protocol: Zeta potentials were measured by Zetasizer Nano ZS (Malvern) to characterize electrokinetic potential of the complex. Ac-A4K-NH2 (SEQ ID NO:55) concentration was 0.5 w/v % in an aqueous solution. siRNA (ribophorin II, RPN2) concentration was controlled for their various charge ratios of A4K/siRNA. The zeta potential of Ac-A4K-NH2 (SEQ ID NO:55) alone was +21.9, which represents that the surface of A4K nanosphere was positively charged because of the primary amine of lysine in Ac-A4K-NH2 (SEQ ID NO:55). As the equipment only detects dispersed phases larger than about 3.8 nm and the size of siRNA in water is about 2 nm in diameter, the measurement only reads the electrokinetic potential of Ac-A4K-NH2 (SEQ ID NO:55) or Ac-A4K-NH2 (SEQ ID NO:55)/siRNA complexes, not unassociated siRNA.

[4] = literature reports; cited from earlier work
[5] = MCF-7, peptide only or with NC siRNA, 48 hours, Methods 1 and 2

Compound | Appearance of peptide mixed with siRNA in transmittance study [1] | Transmittance (%) With siRNA (peptide %/siRNA %) 0.1%/0.01% [1] | Transmittance (%) With siRNA (peptide %/siRNA %) 0.5%/0.05% [1] | Transmittance (%) Peptide alone 0.1% (w/v) [1] [%] | Transmittance (%) Peptide alone 0.5% (w/v) [1] [%] | Nanostructure of peptide [2] | Thickness of each layer of double layer structure ([2]; 0.1% (w/v)) [nm] | Cell toxicity (decrease in luciferase emission) compared with DharmaFECT (MCF-7 cell; [5]) | Cancer associated gene expression (mouse tumor model) | Size of the tumor (mouse tumor model) | Diameter of the nanospheres [2] [nm] | Cell toxicity (decrease in luciferase emission) compared with DharmaFECT (MCF-7 cell) | Zeta potential of peptide alone [3] | Nanostructure / self-assembly (previously reported) [4]
AAAK [A3K] | transparent and substantially without phase separation | 81.1% | 77.3% | 96.2 | 99.6 | nanospheric structures |  |  |  |  |  |  |  | 
A6K2A6: exemplary conventional self-assembling peptide for comparison (AAAAAAKKAAAAAA) [reference compound] |  | 62.9* % | 12.7* % | 98.5 | 83.1 |  |  |  |  |  |  |  |  | 
CC(=O)N[C@@H](C)C(=O)N[C@@H](C)C(=O)N[C@@H](C)C(=O)N[C@@H](C)C(=O)N[C@@H](C)C(=O)N[C@@H](C)C(=O)N[C@@H](CCCCN)C(N)=O [Ac-A6K-NH2, reference compound] (Ac-AAAAAAK-NH2) |  |  |  |  |  |  | 0.8 | less toxic than DharmaFECT | suppressed | decreases |  |  |  | 
Ac-AAAK-NH2 [Ac-A3K-NH2] |  |  |  |  |  | nanospheres |  |  |  |  | 28 |  |  | 
CC(=O)N[C@@H](C)C(=O)N[C@@H](C)C(=O)N[C@@H](C)C(=O)N[C@@H](CCCCN)C(=O)N[C@@H](C)C(=O)N[C@@H](C)C(=O)N[C@@H](C)C(N)=O [Ac-A3KA3-NH2, Ac-AAAKAAA-NH2] (Ac-AAAKAAA-NH2) |  |  |  |  |  | nanospheres (i.e., spherical nanovesicles) |  |  | suppressed | decreases | 30 | less toxic than DharmaFECT |  | 
CC(=O)N[C@@H](C)C(=O)N[C@@H](C)C(=O)N[C@@H](C)C(=O)N[C@@H](C)C(=O)N[C@@H](CCCCN)C(N)=O [Ac-A4K-NH2, Ac-AAAAK-NH2] (Ac-AAAAK-NH2) |  |  |  |  |  | nanospheres (i.e., spherical nanovesicles) |  | less toxic than DharmaFECT | suppressed | decreases | 85 |  | +21.9 | 
AAAAK [A4K] | transparent and substantially without phase separation | 98.7% | 97.5% | 99.4 | 97.8 | nanospheric structures (spherical nanovesicles) |  |  |  |  |  |  |  | does not exhibit relevant self-assembly in water
AAAAAK [A5K, exemplary conventional self-assembling peptide for comparison, reference compound] | cloudy and phase separated | 95.5% | 22.7* % | 99.2 | 71.9 |  |  |  |  |  |  |  |  | 
AAAAAAK [A6K, reference compound] | cloudy and phase separated | 38.4* % | 15.3* % | 94.8 | 98.7 |  |  |  |  |  |  |  |  | nanotubes
AAAKAAA [A3KA3] | transparent and substantially without phase separation | 98.7% | 88.2% | 99.2 | 97.5 | nanospheric structures (spherical nanovesicles) |  |  |  |  |  |  |  | 
